# Assay results reported in patent CN113045663A (SHENZHEN INNOVA NANOBODI CO LTD, dated 2021).
# B1: FC融合纳米抗体3C8 (Fc fusion)
# chain: QLQESGGGLVQAGGSVRLSCAASGRTFRRYHMGWFRQTPGKEREFVAAISWSGGTTYYAESVKGRFTISRDNAKNTIYLQMNSLKPEDTAVYYCAPTYGNYWHPSGYWGQGTQVTVSS
# notes: Capture antibody of the double-antibody sandwich assay; also called 3C8 (捕获一抗); 捕获抗体3C8; not shown: Fc part and any linker
# Target: T1, 血清标本中的HE4抗原 (human, UniProt Q14508 31-124, limits assumed)
# T1 construct: Serum HE4 detected in the sandwich assay; kept apart from the recombinant antigen; also called 血清中HE4; 质控血清HE4
# T1 sequence (looked up): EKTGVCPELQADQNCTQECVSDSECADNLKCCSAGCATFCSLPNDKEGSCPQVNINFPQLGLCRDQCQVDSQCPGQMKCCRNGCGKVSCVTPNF
# Assay: double-antibody sandwich chemiluminescent ELISA, capture antibody
binder,measurement,value
B1,binding result,binds
